This series in a line: Linear charge density of the peptide. Type of series: physicochemical.

As to “LL-37: highly cationic human cathelicidin, host antimicrobial peptide”, the linear charge density entry was “~ +1.1 e/nm”.

The values are drawn from PMC10861912, “Viral afterlife: SARS-CoV-2 as a reservoir of immunomimetic peptides that reassemble into proinflammatory supramolecular complexes” (Proceedings of the National Academy of Sciences of the …, 2024).
